Target: the molecule itself
Test: gel filtration in the presence of DNA and Mg++ (self-association)

B1: nicking endonuclease N.BstNBI (enzyme)
chain: MAKKVNWYVSCSPRSPEKIQPELKVLANFEGSYWKGVKGYKAQEAFAKELAALPQFLGTTYKKEAAFSTRDRVAPMKTYGFVFVDEEGYLRITEAGKMLANNRRPKDVFLKQLVKWQYPSFQHKGKEYPEEEWSINPLVFVLSLLKKVGGLSKLDIAMFCLTATNNNQVDEIAEEIMQFRNEREKIKGQNKKLEFTENYFFKRFEKIYGNVGKIREGKSDSSHKSKIETKMRNARDVADATTRYFRYTGLFVARGNQLVLNPEKSDLIDEIISSSKVVKNYTRVEEFHEYYGNPSLPQFSFETKEQLLDLAHRIRDENTRLAEQLVEHFPNVKVEIQVLEDIYNSLNKKVDVETLKDVIYHAKELQLELKKKKLQADFNDPRQLEEVIDLLEVYHEKKNVIEEKIKARFIANKNTVFEWLTWNGFIILGNALEYKNNFVIDEELQPVTHAAGNQPDMEIIYEDFIVLGEVTTSKGATQFKMESEPVTRHYLNKKKELEKQGVEKELYCLFIAPEINKNTFEEFMKYNIVQNTRIIPLSLKQFNMLLMVQKKLIEKGRRLSSYDIKNLMVSLYRTTIECERKYTQIKAGLEETLNNWVVDKEVRF
notes: Tested for self-association by gel filtration under the same condition as MlyI; No dimers were observed
B1: no binding.

Reference: patent publication US6395523 (NEW ENGLAND BIOLABS, dated 2002)
